# T1: human IL-33 (R&D Systems, #3625-IL-010/CF) (human, UniProt O95760 112-270)
# T1 sequence (looked up): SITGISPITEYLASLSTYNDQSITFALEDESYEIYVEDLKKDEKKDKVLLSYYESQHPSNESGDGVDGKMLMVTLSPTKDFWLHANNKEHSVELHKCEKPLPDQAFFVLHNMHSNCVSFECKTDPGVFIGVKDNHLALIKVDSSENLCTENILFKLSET
# T2: cynomolgus monkey IL-33 expressed with a C-terminal hexahistidine tag (cynomolgus monkey)
# T2 chain: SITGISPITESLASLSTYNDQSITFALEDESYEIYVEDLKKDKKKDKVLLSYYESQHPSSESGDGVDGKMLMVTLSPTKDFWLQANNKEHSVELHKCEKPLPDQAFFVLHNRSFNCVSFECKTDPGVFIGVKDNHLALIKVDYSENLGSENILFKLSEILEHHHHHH
# T3: biotinylated hIL-33 protein (R&D systems, Cat #3625-IL/CF) (human, UniProt O95760 112-270, biotinylated (sites not given))
# T3 construct: Same commercial protein as m21, biotin-labelled; also called biotin-hIL-33
# T3 sequence (looked up): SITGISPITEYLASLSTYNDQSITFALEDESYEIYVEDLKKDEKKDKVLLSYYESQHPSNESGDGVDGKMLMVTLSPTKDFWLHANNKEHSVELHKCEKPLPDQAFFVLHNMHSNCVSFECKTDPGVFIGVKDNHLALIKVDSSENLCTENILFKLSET
# Assays:
# [1] = target: T1, human IL-33 (R&D Systems, …); assay: cell-based or functional assay
# [2] = target: T2, cynomolgus monkey IL-33 expressed with …; assay: cell-based or functional assay
# [3] = target: T1, human IL-33 (R&D Systems, …); assay: BLI; hIL-33 pre-mixed with mAb-2 H1M9565N
# Experimental: (§1) Binding competition between a panel of different anti-IL-33 monoclonal antibodies was determined using a real time, label-free bio-layer interferometry assay on an Octet® HTX biosensor (ForteBio, A Division of Pall Life Sciences). The experiment was performed at 25° C. using a buffer of 0.01M HEPES pH7.4, 0.15M NaCl, 0.05% v/v Surfactant Tween-20, and 0.1 mg/ml BSA (HBS-ET kinetics buffer) with the plate shaking at a speed of 1000 rpm. To assess whether two antibodies were able to compete with one another for binding to human IL-33, a pre-mix assay format was used where 100 nM of human IL-33 (R&D Systems; #3625-IL-010/CF) was pre-mixed with 500 nM of different anti-IL-33 monoclonal antibodies (subsequently referred to as mAb-2) for at least 2 hours prior to running the binding competition assay. […] Following the capture step, unoccupied anti-mouse Fc polyclonal antibody and anti-human Fc polyclonal antibody on the Octet biosensors were saturated by submerging them for 4 minutes into wells containing 200 μg/mL of a non-specific monoclonal antibody with a mouse Fc or with a human Fc, respectively. Finally, the Octet biosensors were immersed for 4 minutes into wells containing the pre-mixed samples of 100 nM of human IL-33 and 500 nM of mAb-2. At the end of each cycle, the non-covalently captured anti-IL-33 antibodies along with the bound pre-complex of human IL-33 and mAb-2 were removed from the biosensors using three alternate 20 second immersions into 10 mM HCl followed by submerging into HBS-ET kinetics buffer. The biosensors were washed in HBS-ET kinetics buffer in between every step of the experiment. The real-time binding response was monitored during the binding events, and the binding response (in units of nm) at the end of every step was recorded.
# [4] = target: T3, biotinylated hIL-33 protein (R&D …); assay: competition ELISA, 30 pM biotin-hIL-33 on coated hST2-hFc
# Experimental: The ability of anti-IL-33 antibodies to block either human IL-33 (hIL-33) or cynomologus monkey IL-33 binding to the human ST2 receptor was measured using a competition sandwich ELISA. […] The antibody/IL-33 mixtures were incubated for 1 hour at room temperature before they were transferred to the hST2-hFc-coated microtiter plates. After incubating for 1 hour at room temperature, the wells were then washed, and plate-bound biotin-hIL-33 was detected with streptavidin conjugated with horse-radish peroxidase (HRP) (Thermo Scientific, Cat # N200), and plate-bound MfIL-33-6His was detected with a HRP conjugated anti-His monoclonal antibody (Qiagen, #34460). All samples were developed with a TMB solution (BD biosciences, #51-2607KC) to produce a colorimetric reaction and then quenched by acidification with 1M sulfuric acid before measuring absorbance at 450 nm on a Victor X5 plate reader. Data analysis was performed using a sigmoidal dose-response model within Prism™ software. […] Percent blockade was calculated as the ratio of the reduction in signal observed in the presence of antibody relative to the difference between the signal with IL-33 alone and background (signal from HRP-conjugated secondary antibody or streptavidin alone). The absorbance measured for the constant concentration of biotin-hIL-33 or MfIL-33-6His alone is defined as 0% blocking and the absorbance measured for no added IL-33 is defined as 100% blocking.
# [5] = target: T1, human IL-33 (R&D Systems, …); assay: BLI; hIL-33 pre-mixed with mAb-2 Isotype control 2
# Experimental: as §1
# [6] = target: T2, cynomolgus monkey IL-33 expressed with …; assay: BLI; captured MfIL-33-6His, mAb-1 step with Buffer
# Experimental: Binding competition between a panel of different anti-IL-33 monoclonal antibodies was determined using a real time, label-free bio-layer interferometry assay on an Octet® HTX biosensor (ForteBio, A Division of Pall Life Sciences). The experiment was performed at 25° C. using a buffer of 0.01M HEPES pH7.4, 0.15M NaCl, 3 mM EDTA, 0.05% v/v Surfactant Tween-20, and 0.1 mg/ml BSA (HBS-ET kinetics buffer) with the plate shaking at a speed of 1000 rpm. […] The antigen-captured biosensors were then saturated with a first anti-IL-33 monoclonal antibody (subsequently referred to as mAb-1) by immersion into wells containing 50 μg/mL solution of mAb-1 for 5 minutes. The biosensors were then dipped into wells containing a 50 μg/mL solution of a second anti-IL-33 monoclonal antibody (subsequently referred to as mAb-2) for 4 minutes. The biosensors were washed in HBS-ET kinetics buffer in between every step of the experiment. The real-time binding response was monitored during the experiment, and the maximum binding response for each binding step was recorded. The response of mAb-2 binding to MfIL-33-6His pre-complexed with mAb-1 was measured, and competitive/non-competitive behavior of different anti-IL-33 monoclonal antibodies with respect to each other was determined.
"IC50, inhibition of 10 pM hIL-33 activation of HEK293/hST2/NFkB-luciferase cells [1] [M]","IC50, inhibition of 5 pM MfIL-33-6His activation of HEK293/hST2/NFkB-luciferase cells [2] [M]",mAb-1 Binding to the Pre-complex of mAb-2 & hIL-33 [3] [nm],% Maximum blocking [4] [%],IC50 [4] [nM],mAb-1 Binding to the Pre-complex of mAb-2 & hIL-33 [5] [nm],mAb-2 Binding to the Pre-complex of mAb-1 & MfIL-33-6xHis [6] [nm],Binder
2.5e-11,2e-08,0.52,63,0.44,0.08,0.3,"H4H9672P (antibody, human IgG4, V domains shown, Human IgG4 Fc (H4H)) VH: EVQLVESGGGLVQPGGSLRLSCAASGFTLRSYVMYWVRQGPGKGLEGVSGISGSSGGTYYTDSVKGRFTISRDNSKNTLFLQMNSLRAEDTAVYFCARSVYSTTWYGGFQHWGQGTLVTVSS VL: DIQMTQSPSSVSVSVGDRVTITCRASQVISSWLAWYQLKPGKAPKLLIYAASSLQSGVPSRFSGSGSGTDFTLTISGLQPEDFAVYYCQQTNSFPLTFGGGTKVEIK"
3.5e-11,8.4e-09,0.45,54,0.46,0.1,0.29,"H4H9676P (antibody, human IgG4, V domains shown, Human IgG4 Fc (H4H)) VH: EVQLVESGGGLVQPGGSLRLSCSASGFTFSSYAMNWVRQAPGKGLEWVTAISGSGGGTYYADSVKGRFTISRDNSKNSLFLQLNSLRAEDTAVYYCAKQTYTSSWYGGFDIWGQGTMVTVSS VL: DIQMTQSPSSVSASVGDRVTITCRASQGFSSWLAWYQQIPGKAPKLLIYAASRLQSGVPSRFRGSGSGTDFTLTISSLQPEDFATYYCQQANSFPLTFGGGTKVEIK"
7.5e-12,4.1e-09,0.51,58,0.44,0.11,0.31,"H4H9675P (antibody, human IgG4, V domains shown, Human IgG4 Fc (H4H)) VH: EVQLVESGGNLEQPGGSLRLSCTASGFTFSRSAMNWVRRAPGKGLEWVSGISGSGGRTYYADSVKGRFTISRDNSKNTLYLQMNSLSAEDTAAYYCAKDSYTTSWYGGMDVWGHGTTVTVSS VL: DIQMTQSPSSVSASVGDRVTITCRASQGIFSWLAWYQQKPGKAPKLLIYAASSLQSGVPSRFSGSGSGTDFTLTISSLQPEDFAIYYCQQANSVPITFGQGTRLEIK"
2e-09,4.9e-08,0.35,88,0.14,0.11,0.25,"H1M9559N (antibody, mouse IgG1, V domains shown, Human variable domains, mouse IgG1 Fc (H1M)) VH: QVQLVESGGGVVQPGRSLRLSCAASGFTFSSYGMHWVRQAPGKGLEWVAVIWYDGRNKYYTDSVKGRFTISRDNSKNTLYLQMDSLRAEDTAVYYCARERYISSYYGGFDPWGQGALVTVSS VL: DIQMTQSPSSVSASVGDRVTITCRASQGISSWLAWYQQKPGKAPKVLIYAASSLQSGVPSRFSGSGSGTDFTLTISSLQPEDFATYYCQQANSFPFTFGPGTKLDIK"
1.2e-10,1.7e-08,0.51,69,0.48,0.12,0.3,"H4H9670P (antibody, V domains shown, Human IgG4 Fc (H4H)) VH: EVQLVESGGGLVQPGGSLRLSCAASGFTLSSYAMSWVRQAPGKGLEWVSAISGSGGSTYYADSVKGRFTISRDNSKNSLYLQLNSLRAEDTAVYYCAKTLYTTSWYGGFQHWGQGTLVTVSS VL: DIQMTQSPSSVSASIGDRVTITCRASQGISSWLAWYQQKPGKVPKLLIYAASSLQSGFPSRFSGSGSGTDFTLTISSLQPEDFATYYCQQTHSFPWTVGQGTKVEIK"
2.5e-11,4.8e-09,0.57,46,0.46,0.07,0.29,"H4H9671P (antibody, human IgG4, V domains shown, Human IgG4 Fc (H4H)) VH: EVQLVESGGGLVQPGGSLRLSCAASGFTLRSYFMTWVRQVPGKGLEGVSAISGISGGTYYTDSVKGRFTISRDNSKNTLFLQMNSLRAEDTAVYFCARTVYSSSYYGGFQHWGQGTLVTVSS VL: DIQMTQSPSSVSVSVGDRVTITCRASQGISSWLAWYQQKPGKAPKLLIYVASSLQSGVPSRFSGSGSGTDFTLTISSLQPEDFATYYCQQTNSFPLTFGGGTKVEIK"
